Measurements from patent publication US20260001927A1.

Target: IL-10 receptors IL-10RA and IL-10RB engineered into U2OS osteosarcoma cells (UniProt Q13651)
Assay: cell-based or functional assay

## recombinant human IL-10 (rhIL-10) (from UniProt P22301 19-178) (ligand)
  EC50, luminescence from ligand-induced IL-10RA/IL-10RB receptor dimerization in engineered U2OS cells: 91.5 pM
